Assay [1] addresses DS-Cav1, prefusion-stabilized form of the RSV fusion (F) glycoprotein (human respiratory syncytial virus | not stated). The assay is described as follows: cryo-EM structure.
Assay [2] has the same target. The assay is described as follows: crystal structure.

Broadly, the stoichiometry N is the number of molecules, sites or subunits per partner or assembly. For the substance “DS-Cav1, prefusion-stabilized form of the RSV fusion (F) glycoprotein (natural protein)”, the stoichiometry N in assay [1] and in assay [2] was 3 each time.

Values taken from article PMC8386734.
